Measured values reported in publication PMC10538664 (2023).

Target: prototype SARS-CoV-2 tandem RBD homotrimer (PPP) (SARS-CoV-2, UniProt P0DTC2)
Experiment: SPR

B1: fragment antigen binding (Fab) of mAb CB6 (Fab, V domains shown)
VH: EVQLVESGGGLVQPGGSLRLSCAASGFTVSSNYMSWVRQAPGKGLEWVSVIYSGGSTFYADSVKGRFTISRDNSMNTLFLQMNSLRAEDTAVYYCARVLPMYGDYLDYWGQGTLVTVSS
VL: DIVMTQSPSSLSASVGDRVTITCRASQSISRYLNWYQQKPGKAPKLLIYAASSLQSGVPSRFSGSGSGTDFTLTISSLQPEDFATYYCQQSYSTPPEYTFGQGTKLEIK
  Kd: 24.3 nM
